Assays:
human CD5 on cells [1] = target: T1, human CD5 on cells (human, UniProt P06127 25-495); assay: flow cytometry on MOLT-4 cells, antibody titration, anti-mouse AF488 secondary, 4 C
T1 construct: Endogenous CD5 on MOLT-4 human T lymphoblast cells or primary human T cells; The cell type is named under assay; also called CD5 on MOLT-4 cells; CD5 on primary human T-cells
T1 sequence (looked up): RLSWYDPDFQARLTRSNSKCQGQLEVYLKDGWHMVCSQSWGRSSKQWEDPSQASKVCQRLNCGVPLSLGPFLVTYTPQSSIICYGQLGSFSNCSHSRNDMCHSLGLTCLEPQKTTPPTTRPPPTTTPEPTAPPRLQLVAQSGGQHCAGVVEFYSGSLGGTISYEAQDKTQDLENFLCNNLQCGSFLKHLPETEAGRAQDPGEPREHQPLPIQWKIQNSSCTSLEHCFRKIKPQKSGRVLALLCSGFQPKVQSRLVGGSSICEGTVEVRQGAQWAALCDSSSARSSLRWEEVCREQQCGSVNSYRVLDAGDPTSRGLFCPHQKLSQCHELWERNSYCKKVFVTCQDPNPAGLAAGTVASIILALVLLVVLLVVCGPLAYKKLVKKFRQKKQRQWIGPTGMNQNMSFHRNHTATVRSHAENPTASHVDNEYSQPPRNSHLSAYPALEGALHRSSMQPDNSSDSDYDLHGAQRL

human CD5 on cells [2] = target: T1, human CD5 on cells; assay: flow cytometry on MOLT-4 cells, antibody titration 2 h at 4 C, anti-mouse AF488 secondary, geometric MFI
human CD2 on cells [3] = target: T2, human CD2 on cells (human, UniProt P06729 25-351); assay: flow cytometry on MOLT-4 cells, antibody titration, anti-mouse AF488 secondary, 4 C
T2 construct: Endogenous CD2 on MOLT-4 human T lymphoblast cells, primary human T cells or primary human NK cells; The cell type is named under assay; also called CD2 on MOLT-4 cells; CD2 on primary human T-cells
T2 sequence: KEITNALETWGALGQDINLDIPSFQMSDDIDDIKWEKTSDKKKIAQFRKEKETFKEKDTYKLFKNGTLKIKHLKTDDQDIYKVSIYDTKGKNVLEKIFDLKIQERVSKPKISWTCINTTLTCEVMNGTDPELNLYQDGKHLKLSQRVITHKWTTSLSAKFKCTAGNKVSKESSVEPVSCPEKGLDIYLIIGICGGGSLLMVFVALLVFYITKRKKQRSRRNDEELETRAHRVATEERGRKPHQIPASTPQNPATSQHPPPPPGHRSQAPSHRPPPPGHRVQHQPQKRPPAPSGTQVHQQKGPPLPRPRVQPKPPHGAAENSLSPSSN

[4] = target: T3, purified human CD2 ectodomain (human, UniProt P06729 25-209); assay: BLI (Octet Red96), IgG on anti-human Fc biosensor, 50 nM human CD2 ectodomain, 1:1 model
T3 construct: Bought reagent; also called Sigma Aldrich Catalog #5086
T3 sequence: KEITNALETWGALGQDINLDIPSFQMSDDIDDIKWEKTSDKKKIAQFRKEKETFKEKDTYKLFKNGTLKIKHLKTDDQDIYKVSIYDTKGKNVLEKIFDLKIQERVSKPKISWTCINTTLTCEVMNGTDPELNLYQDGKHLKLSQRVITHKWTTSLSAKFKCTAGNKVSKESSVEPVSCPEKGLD

[5] = target: T3, purified human CD2 ectodomain; assay: BLI (Octet Red96), IgG on anti-human Fc biosensor, 50 nM human CD2 ectodomain, 1:1 model, apparent monovalent affinity
[6] = target: T4, purified human CD5 ectodomain (human, UniProt P06127 25-372); assay: BLI (Octet Red96), IgG on anti-human Fc biosensor, 50 nM human CD5 ectodomain
T4 sequence (looked up): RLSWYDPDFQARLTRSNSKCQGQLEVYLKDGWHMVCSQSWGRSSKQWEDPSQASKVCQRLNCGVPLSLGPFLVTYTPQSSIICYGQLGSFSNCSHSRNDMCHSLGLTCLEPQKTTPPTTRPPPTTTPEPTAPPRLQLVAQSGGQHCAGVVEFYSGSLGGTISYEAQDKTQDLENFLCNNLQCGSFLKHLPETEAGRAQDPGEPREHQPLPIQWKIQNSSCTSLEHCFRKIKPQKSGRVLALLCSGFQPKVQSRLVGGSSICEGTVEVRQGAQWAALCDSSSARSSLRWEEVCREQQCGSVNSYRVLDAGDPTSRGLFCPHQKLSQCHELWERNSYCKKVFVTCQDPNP
Method: To determine the binding characteristics of anti-CD5 antibody 5D7 hIgG1, antibody binding studies were performed at 25 degrees celsius in 1×PBS supplemented with 0.1% w/v bovine serum albumin with a Pall ForteBio Octet Red96 using biolayer interferometry (BLI).

human CD5 on cells [7] = target: T1, human CD5 on cells; assay: flow cytometry on primary human T-cells, antibody titration 2 h at 37 C, AF488 secondary
human CD5 on cells [8] = target: T1, human CD5 on cells; assay: flow cytometry on primary human T-cells, antibody titration 2 h at 37 C, AF488 secondary, MFI
Method: Secondary anti-mouse AF488 stain, at a constant amount, was added for 30 minutes at 4° C.

human CD2 on cells [9] = target: T2, human CD2 on cells; assay: flow cytometry on primary human T-cells, antibody titration 2 h at 37 C, AF488 secondary
[10] = target: T3, purified human CD2 ectodomain; assay: BLI (Octet Red96), IgG on anti-murine Fc biosensor, 50 nM human CD2 ectodomain, 1:1 model
human CD2 on cells [11] = target: T2, human CD2 on cells; assay: flow cytometry on primary human T-cells, antibody titration 2 h at 37 C, AF488 secondary, MFI
Method: Primary human T-cells were plated at 8×10⁴ cells/well and stained with a titration of the murine anti-CD23 antibody RPA-2.10 for 2 hours at 37° C. Secondary anti-mouse or anti-human AF488 stain, relative to primary antibody, at a constant amount, was added for 30 minutes at 4° C. After washing, plates were run on a flow cytometer and binding of the indicated antibody (and the negative control, i.e., mIgG1 or hIgG1) was determined based on geometric mean fluorescence intensity in the AF488 channel.

[12] = target: T3, purified human CD2 ectodomain; assay: BLI (Octet Red96), IgG on anti-murine Fc biosensor, 50 nM human CD2 ectodomain, 1:1 model, apparent monovalent affinity

murine anti-CD5 antibody CRIS-1 (Novus Biologicals)
EC50 (human CD5 on cells [1]): 43 pM | EC50 (read off the curve) (human CD5 on cells [2]): 40 pM

murine anti-CD2 antibody TS1/8
EC50 (human CD2 on cells [3]): 125 pM

murine anti-CD5 antibody UCHT2 (BioLegend)
EC50 (human CD5 on cells [1]): 354 pM | EC50 (read off the curve) (human CD5 on cells [2]): 300 pM

B1: anti-CD2 antibody Ab1 hIgG1 (antibody, V domains shown)
VH: QVQLVQSGAEVKKPGASVKVSCKASGYTFTEYYMYWVRQAPGQGLELMGRIDPEDGSIDYVEKFKKKVTLTADTSSSTAYMELSSLTSDDTAVYYCARGKFNYRFAYWGQGTLVTVSS
VL: DVVMTQSPPSLLVTLGQPASISCRSSQSLLHSSGNTYLNWLLQRPGQSPQPLIYLVSKLESGVPDRFSGSGSGTDFTLKISGVEAEDVGVYYCMQFTHYPYTFGQGTKLEIK
notes: Tested as human IgG1 (hIgG1)
koff [4]: 0.000289 s⁻¹ | kon [4]: 136000 M⁻¹ s⁻¹ | Kd [5]: 2120 pM

B2: anti-CD5 antibody 5D7 hIgG1 (humanized version of murine antibody 5D7) (antibody, V domains shown)
VH: QVTLKESGPVLVKPTETLTLTCTFSGFSLSTSGMGVGWIRQAPGKGLEWVAHIWWDDDVYYNPSLKSRLTITKDASKDQVSLKLSSVTAADTAVYYCVRRRATGTGFDYWGQGTLVTVSS
VL: NIVMTQSPSSLSASVGDRVTITCQASQDVGTAVAWYQQKPDQSPKLLIYWTSTRHTGVPDRFTGSGSGTDFTLTISSLQPEDIATYFCHQYNSYNTFGSGTKLEIK
notes: Tested as human IgG1 (hIgG1); also called anti-CD5 5D7 antibody; humanized 5D7
Kd [6]: 141 pM | koff [6]: 3.36e-05 s⁻¹ | kon [6]: 239000 M⁻¹ s⁻¹ | EC50 (human CD5 on cells [7]): 3 pM | EC50 (read off the curve) (human CD5 on cells [8]): ~30 pM

B3: anti-CD2 antibody RPA-2.10 mIgG1 (antibody, V domains shown)
VH: EVKLVESGGGLVKPGGSLKLSCAASGFTFSSYDMSWVRQTPEKRLEWVASISGGGFLYYLDSVKGRFTISRDNARNILYLHMTSLRSEDTAMYYCARSSYGEIMDYWGQGTSVTVSS
VL: DILLTQSPAILSVSPGERVSFSCRASQRIGTSIHWYQQRTTGSPRLLIKYASESISGIPSRFSGSGSGTDFTLSINSVESEDVADYYCQQSHGWPFTFGGGTKLEIER
notes: Murine IgG1; also called mRPA-2.10; murine anti-CD2 antibody RPA-2.10
EC50 (human CD2 on cells [3]): 160 pM | EC50 (human CD2 on cells [9]): 1.84 pM | koff [10]: 0.000172 s⁻¹ | kon [10]: 86000 M⁻¹ s⁻¹ | EC50 (read off the curve) (human CD2 on cells [11]): ~30 pM | Kd [12]: 2000 pM

From US20220249683A1 (MAGENTA THERAPEUTICS, published 2022)
